This note sets out measurements from patent US20200407442A1.

Residue numbers refer to the chain shown, from its start. Like-named read-outs stand apart in the source and are kept apart here.

The target of assay [1] is full-length cynomolgus LAG-3 on cells (cynomolgus). In words: FACS on cynomolgus LAG-3-expressing 293F cells (target not labelled in the table).
Target sequence in this assay (P18627 other isoform, or with tags, fused parts or gaps limits assumed, form in doubt): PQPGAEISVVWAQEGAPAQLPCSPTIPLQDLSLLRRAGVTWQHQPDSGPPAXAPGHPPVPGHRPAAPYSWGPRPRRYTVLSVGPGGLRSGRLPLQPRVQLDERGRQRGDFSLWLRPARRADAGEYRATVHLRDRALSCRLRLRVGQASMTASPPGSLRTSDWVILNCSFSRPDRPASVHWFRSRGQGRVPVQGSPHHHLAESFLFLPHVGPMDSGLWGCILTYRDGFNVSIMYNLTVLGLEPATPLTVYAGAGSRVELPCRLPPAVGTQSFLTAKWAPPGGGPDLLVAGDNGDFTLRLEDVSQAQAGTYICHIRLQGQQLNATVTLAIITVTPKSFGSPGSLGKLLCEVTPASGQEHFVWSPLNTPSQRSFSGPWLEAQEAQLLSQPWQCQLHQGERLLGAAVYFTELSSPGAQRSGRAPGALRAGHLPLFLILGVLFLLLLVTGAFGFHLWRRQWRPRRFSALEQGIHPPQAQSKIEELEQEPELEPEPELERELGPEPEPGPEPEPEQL
In assay [2] the target is full-length human LAG-3 on cells (human) (UniProt P18627). Put plainly: FACS affinity on Flp-In-293 cells expressing human LAG-3.
Assay [3] concerns the target mFc-tagged LAG-3 protein (human) (UniProt P18627). Put plainly: ELISA competition: blocks mFc-tagged LAG-3 binding to coated LSECtin. For orientation: ELISA stands for enzyme-linked immunosorbent assay.
The target of assay [4] is full-length human LAG-3 on cells (human) (UniProt P18627). Put plainly: cell-based or functional assay.
The target in assay [5] is full-length cynomolgus LAG-3 on cells (cynomolgus). In words: FACS on cynomolgus LAG-3-expressing 293F cells (target not labelled in the table). The source holds these as a separate data set.
Target sequence in this assay (P18627 other isoform, or with tags, fused parts or gaps limits assumed, form in doubt): as above
Assay [6] deals with mFc-tagged LAG-3 protein (human) (UniProt P18627). In words: FACS competition: blocks mFc-tagged LAG-3 binding to MHC-II on Raji cells.
The target is the same in assay [7]. In words: ELISA competition: blocks mFc-tagged LAG-3 binding to coated Galectin-3.
Assay [8] has as its target human LAG-3 protein (SPR analyte) (human) (UniProt P18627). In words: SPR Biacore 8K, antibody captured by anti-human Fc, LAG-3 as analyte. On the technique in general: Surface plasmon resonance follows binding to a sensor surface in real time, without labels.
Assay [9] addresses full-length human LAG-3 on cells (human) (UniProt P18627). Put plainly: FACS on human LAG-3 transfectant cells.

Chain of full-length human LAG-3 on cells (human) (P18627 23-525 limits assumed): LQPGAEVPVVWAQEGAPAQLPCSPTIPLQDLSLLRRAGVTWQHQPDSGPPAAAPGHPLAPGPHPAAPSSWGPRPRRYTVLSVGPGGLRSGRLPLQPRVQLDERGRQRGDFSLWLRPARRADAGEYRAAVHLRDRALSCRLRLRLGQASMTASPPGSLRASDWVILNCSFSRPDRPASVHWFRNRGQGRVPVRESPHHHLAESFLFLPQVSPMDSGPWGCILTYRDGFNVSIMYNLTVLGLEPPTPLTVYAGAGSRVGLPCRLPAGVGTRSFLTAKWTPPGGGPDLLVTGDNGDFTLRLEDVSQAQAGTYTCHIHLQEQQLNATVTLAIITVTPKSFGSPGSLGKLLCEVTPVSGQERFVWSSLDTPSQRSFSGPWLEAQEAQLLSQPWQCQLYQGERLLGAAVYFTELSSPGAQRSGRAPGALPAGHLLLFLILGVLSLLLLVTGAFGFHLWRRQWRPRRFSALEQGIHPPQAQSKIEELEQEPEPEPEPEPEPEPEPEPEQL
Chain of mFc-tagged LAG-3 protein (human) (P18627 30-450): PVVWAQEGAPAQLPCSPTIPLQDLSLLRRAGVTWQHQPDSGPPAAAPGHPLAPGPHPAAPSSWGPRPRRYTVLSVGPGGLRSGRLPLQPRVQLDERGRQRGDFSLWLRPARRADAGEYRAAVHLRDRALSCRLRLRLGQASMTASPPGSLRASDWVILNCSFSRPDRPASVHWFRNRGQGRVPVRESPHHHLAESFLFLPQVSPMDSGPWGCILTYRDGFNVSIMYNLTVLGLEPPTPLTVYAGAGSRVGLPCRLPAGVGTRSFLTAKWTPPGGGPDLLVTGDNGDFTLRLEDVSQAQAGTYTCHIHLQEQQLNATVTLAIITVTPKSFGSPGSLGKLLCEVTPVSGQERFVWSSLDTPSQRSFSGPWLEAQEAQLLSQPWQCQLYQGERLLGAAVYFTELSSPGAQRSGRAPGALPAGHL
Chain of human LAG-3 protein (SPR analyte) (human) (P18627 30-450 limits assumed): as the sequence (P18627 30-450) above

B1: 3.40.19-uAb-IgG4L (antibody, V domains shown)
VH: QLQLQESGPGLVKPSETLSLTCTVSGDSISSTSYYWGWIRQPPGKGLEWIGSFYYSGSTYYNPSLKSRVTISVDTSKNQFSLKLNSVTAADTAVYYCARMQLWSYDVDVWGQGTTVTVSS
VL: QSALTQPASVSGSPGQSITISCTGTSSDVGGYDYVAWYQQHPGKVPKLMIYDVSERPSGVSNRFSGSKSGNTASLTISGLQAEDEADYYCSSYTSTTTLVVFGGGTKLSVL
As a reminder, the EC50 is the concentration giving half of the maximal effect. A low value points to an effect from little substance. As to B1, the EC50 in assay [1] was determined as 3.92 nM.

B2: BMK7 (antibody, INN chains, looked up, V domains shown)
VH: QVQLVESGGGVVQPGRSLRLSCVASGFTFSSYGMHWVRQAPGKGLEWVAIIWYDGSNKYYADSVKGRFTISRDNSKNTQYLQMNSLRAEDTAVYYCASVATSGDFDYYGMDVWGQGTTVTVSS
VL: EIVLTQSPATLSLSPGERTTLSCRASQRISTYLAWYQQKPGQAPRLLIYDASKRATGIPARFSGSGSGTGFTLTISSLEPEDFAVYYCQQRSNWPLTFGGGTKVEIK
A word on the Kd: it is the free concentration of one partner at which half of the binding sites on the other are occupied at equilibrium, for simple one-to-one binding. Higher therefore signals weaker binding. In general, koff refers to the rate constant with which the complex falls apart. High values mean a short-lived complex, low ones a long-lived complex. By kon is commonly meant the second-order rate constant of association. A higher kon goes with fast association. B2: the Kd in assay [2] is 0.58 nM; in assay [8], 0.497 nM. The EC50 in assay [3] is 0.59 nM; in [5] it was 2.65 nM; in assay [6], 1.25 nM; in [7], 0.79 nM; in [9], 0.61 nM. The EC50, IL-2 luciferase reporter gene assay (Jurkat cells expressing human LAG-3 with Raji cells and SEE) in assay [4] was found to be 2.65 nM. In [8], the koff was determined as 0.000106 s⁻¹. This molecule displayed a kon in assay [8] of 213000 M⁻¹ s⁻¹.

B3: 1.53.3-uAb-IgG4k (antibody, V domains shown)
VH: QVQLQQWGAGLLKPSETLSLTCGVYGGSFSGYYWSWIRQPPGMGLEWIGEINHRGNTNYNPSLKSRVTISEDTSKNQFSLRLSSVTAADTAVYFCTRGEDYSDYDYYGDFWGQGTLVTVSS
VL: B2 VL with P15Q, T19A, R28S, T31S, D50A, K53N, G70D, V85I
For the molecule B3, in [1], the EC50 stood at 4.01 nM. This lies in the single-digit nanomolar range.
